Laboratory results published in publication PMC4821243, “Heparin binding preference and structures in the fibroblast growth factor family parallel their evolutionary diversification” (Open Biology, 2016).

Target: the molecule itself
Assay: SEC-MALS; Superdex 200 HR10/300 in series with Wyatt Dawn8+ and Optilab T-rEX, 22°C; 100 µl, 100 µg protein; 150 mM NaCl with 50 mM HEPES or 50 mM Tris-Cl, pH 7.4; 0.75 ml/min

B1: Histag-FGF20 (recombinant human fibroblast growth factor 20) (natural protein)
chain: not shown
notes: Fibroblast growth factor 20, human; Made in E. coli, so not glycosylated; source: Escherichia coli, expressed and purified as described [37]
- stoichiometry N: 2
